Common to all, as to settings: LightShift Chemiluminescent EMSA kit, manufacturer's protocol; binding buffer, pH and temperature not stated; protein eluted in 20 mM Tris-HCl pH 8.0, 500 mM …
On the technique in general: Mobility shift assays separate free from complexed probe on a gel.

Data set [1] deals with T1, His-STOP1 (Arabidopsis thaliana) (UniProt Q9C8N5).
T1 sequence: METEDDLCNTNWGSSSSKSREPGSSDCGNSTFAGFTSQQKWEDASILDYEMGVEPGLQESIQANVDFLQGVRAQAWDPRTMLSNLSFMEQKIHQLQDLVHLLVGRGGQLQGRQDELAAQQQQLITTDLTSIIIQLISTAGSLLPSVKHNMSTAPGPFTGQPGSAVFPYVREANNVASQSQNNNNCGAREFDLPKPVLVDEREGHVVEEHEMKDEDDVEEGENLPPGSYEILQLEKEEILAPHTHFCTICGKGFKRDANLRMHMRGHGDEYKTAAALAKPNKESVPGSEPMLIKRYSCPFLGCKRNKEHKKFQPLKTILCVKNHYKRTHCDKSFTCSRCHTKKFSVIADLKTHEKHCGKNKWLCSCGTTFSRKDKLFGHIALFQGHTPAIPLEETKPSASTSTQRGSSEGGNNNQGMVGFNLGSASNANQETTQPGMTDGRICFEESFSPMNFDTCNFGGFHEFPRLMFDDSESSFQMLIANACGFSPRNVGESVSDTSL
The experiment in a line: EMSA.

Data set [2] concerns the target T2, His-STOP1 H266Y H266Y (Arabidopsis thaliana (stop1-1 allele)) (UniProt Q9C8N5).
T2 sequence: T1 sequence with H266Y
Description: EMSA.

The target in data set [3] is T1, His-STOP1 (Arabidopsis thaliana). Description: competition.

Numbering of substitutions follows the chain as printed.

As to “TTGCATTTAAATTATCAAAGACTAAGATAAGCCTAGAATAATTTAAAATGTAAACTATAGTATACGTCAGAACCTACAGATACAACCTTCCTCGTATAATCCCTAAACAGAATTTTAATT (double strand) [P3 (F2-2) LKS1 promoter probe]”, the binding result was “binds” in data set [1] and “no binding” in data set [2].

As to “TTGCATTTAAATTATCAAAGACTAAGATAAGCCTAGAATAATTTAAAATGTAAACTATAGTATACGTCAGAACCTACAGATACAACCTTCCTCGTATAATCCCTAAACAGAATTTTAATT (double strand) [P3 unlabeled competitor (cold probe)]”, in data set [3], the binding result is reported as “binds”.
